Measured values published in article PMC6718402, “The structural basis of lipid scrambling and inactivation in the endoplasmic reticulum scramblase TMEM16K” (Nature Communications, 2019).

Molecular target: the molecule itself
Assay: crystal structure; TMEM16K purified in UDM/CHS, crystallised in lipidic cubic phase (MAG 7.9; 0.1 M MES pH 6.0, 0.1 M NaCl, 0.1 M CaCl2, 30% PEG300) and by sitting drop vapour diffusion (0.1 M HEPES pH 7.0, 0.1 M calcium acetate, 22% PEG400); open groove conformation

B1: human TMEM16K (anoctamin-10), full length (natural protein, UniProt Q9NW15-1 1-660, looked up)
chain: MKVTLSALDTSESSFTPLVVIELAQDVKEETKEWLKNRIIAKKKDGGAQLLFRPLLNKYEQETLENQNLYLVGASKIRMLLGAEAVGLVKECNDNTMRAFTYRTRQNFKGFDDNNDDFLTMAECQFIIKHELENLRAKDEKMIPGYPQAKLYPGKSLLRRLLTSGIVIQVFPLHDSEALKKLEDTWYTRFALKYQPIDSIRGYFGETIALYFGFLEYFTFALIPMAVIGLPYYLFVWEDYDKYVIFASFNLIWSTVILELWKRGCANMTYRWGTLLMKRKFEEPRPGFHGVLGINSITGKEEPLYPSYKRQLRIYLVSLPFVCLCLYFSLYVMMIYFDMEVWALGLHENSGSEWTSVLLYVPSIIYAIVIEIMNRLYRYAAEFLTSWENHRLESAYQNHLILKVLVFNFLNCFASLFYIAFVLKDMKLLRQSLATLLITSQILNQIMESFLPYWLQRKHGVRVKRKVQALKADIDATLYEQVILEKEMGTYLGTFDDYLELFLQFGYVSLFSCVYPLAAAFAVLNNFTEVNSDALKMCRVFKRPFSEPSANIGVWQLAFETMSVISVVTNCALIGMSPQVNAVFPESKADLILIVVAVEHALLALKFILAFAIPDKPRHIQMKLARLEFESLEALKQQQMKLVTENLKEEPMESGKEKAT
notes: The tag was removed with TEV protease before size exclusion, so residues of the TEV site may remain at the C-terminus; Modelled residues: Ser14-Gln639 (LCP crystal), Ser13-Lys641 (2 mM Ca2+ cryo-EM); the purification is described as similar to that for crystallisation (Sf9); also called hTMEM16K; ANO10; source: Sf9 cells (baculovirus), purified in UDM/CHS (Talon resin, TEV cleavage, Superose 6 …)
stoichiometry N: 2
